Target: the molecule itself
Test: SEC-MALS; data not shown; purified IRF-3 RD in various buffers, including 10 mM sodium phosphate pH 7 or buffer A (50 mM sodium phosphate pH 8, 300 mM NaCl, 10 mM imidazole); the method is told only in general (SEC-MALS in various buffers)

B1: IRF-3 RD (regulatory domain of IRF-3, residues 175-427, N-terminal hexahistidine tag; IRF-3 RDHN) (domain or fragment, human, UniProt Q14653 175-427, looked up)
chain: SLDNPTPFPNLGPSENPLKRLLVPGEEWEFEVTAFYRGRQVFQQTISCPEGLRLVGSEVGDRTLPGWPVTLPDPGMSLTDRGVMSYVRHVLSCLGGGLALWRAGQWLWAQRLGHCHTYWAVSEELLPNSGHGPDGEVPKDKEGGVFDLGPFIVDLITFTEGSGRSPRYALWFCVGESWPQDQPWTKRLVMVKVVPTCLRALVEMARVGGASSLENTVDLHISNSHPLSLTSDQYKAYLQDLVEGMDFQGPGES
notes: Human IRF-3, regulatory domain, residues 175-427; Dimer or monomer according to the buffer (monomer in buffers C and D); Also made uniformly 15N-labelled for NMR; source: E. coli Rosetta [DE3], purified (Talon IMAC, Hi-Trap Q, Superdex 200); not shown: His6, N-terminal, kept
  stoichiometry N: 2
